From paper PMC7242751, “Novel ssDNA Ligand Against Ovarian Cancer Biomarker CA125 With Promising Diagnostic Potential”

B1: Apt 2.43 (ssDNA)
DNA: TAGGGAAGAGAAGGACATATGATGATCAACAACACAAGGGGGGGGGTATCTAGTTGACTAGTACATGACCACTTGA
B2: Apt 2.26 (ssDNA)
DNA: TAGGGAAGAGAAGGACATATGATTTTAGGGAAGAGAAGGACTTTTATGCCGCCTTGACTAGTACATGACCACTTGA

Target: CA125 (native antigen) (human, UniProt Q8WXI7 1-14451)
Experiment: nitrocellulose membrane binding, elution and nanodrop quantification; CA125 20 U/mL immobilized; 1 mM Mg2+ in binding buffer; SELEX binding buffer 10 mM PBS, 1 mM MgCl2, 0.01% herring sperm DNA, 25 C; KD in binding buffer (composition not restated), 2 h at RT; pH not stated
Details: protein: native

Binder | Kd
B1 | 239 nM
B2 | 166 nM
